From patent publication US20240124586A1 (WUXI BIOLOGICS IRELAND, published 2024)
Values belong to the binder of their own block, whether it stands above or below them.

Key:
FcγRI = molecular target: T1, FcγRI (UniProt P12314 16-288, limits assumed); assay: SPR (Biacore), receptor captured on anti-his chip, 1:1 model
T1 construct: His-tagged by the capture method
Description: (§1) Antibody binding affinity to FcγRs was detected using Biacore T200 (or Biacore 8K). Each receptor was captured on an anti-his antibody immobilized CM5 sensor chip (GE). Antibodies at different concentrations were injected over the sensor chip at a flow rate of 30 uL/min for an association phase of 60 s, followed by 60 s dissociation. The chip was then regenerated by 10 mM glycine (pH 1.5) after each binding cycle.
(§2) The sensorgrams of blank surface and buffer channel were subtracted from the test sensorgrams. The experimental data was fitted by 1:1 model using Langmiur analysis (for FcγRI) or steady state model (for other receptors). Molecular weight of 150 KDa was used to calculate the molar concentration of antibodies.

FcγRIIIa (F176) = FcγRIIIa (F176) (UniProt P08637 17-208); assay: SPR (Biacore), receptor captured on anti-his chip, steady state model
Description: as §1, §2

FcγRIIIa (V176) = FcγRIIIa (V176) (UniProt P08637 17-208); assay: as above
Description: as §1, §2

FcγRIIIb = FcγRIIIb (UniProt O75015 17-200, limits assumed); assay: as above
Description: as §1, §2

FcγRIIa (H167) = molecular target: T2, FcγRIIa (H167) (UniProt P12318 36-218, limits assumed); assay: as above
T2 sequence (looked up): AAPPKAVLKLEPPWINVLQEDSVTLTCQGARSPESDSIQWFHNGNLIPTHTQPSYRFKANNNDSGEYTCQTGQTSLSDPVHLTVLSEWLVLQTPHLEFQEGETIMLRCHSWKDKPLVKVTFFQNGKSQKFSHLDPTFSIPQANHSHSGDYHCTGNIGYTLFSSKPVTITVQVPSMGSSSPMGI
Description: as §1, §2

FcγRIIa (R167) = molecular target: T3, FcγRIIa (R167) (UniProt P12318 36-218, limits assumed); assay: as above
T3 sequence (looked up): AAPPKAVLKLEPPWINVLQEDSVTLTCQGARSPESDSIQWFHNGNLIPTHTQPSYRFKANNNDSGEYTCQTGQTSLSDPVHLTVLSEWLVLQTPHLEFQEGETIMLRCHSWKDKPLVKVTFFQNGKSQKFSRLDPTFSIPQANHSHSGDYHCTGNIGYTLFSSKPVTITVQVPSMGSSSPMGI
Description: as §1, §2

FcγRIIb = molecular target: T4, FcγRIIb (UniProt P31994 46-217, limits assumed); assay: as above
T4 sequence (looked up): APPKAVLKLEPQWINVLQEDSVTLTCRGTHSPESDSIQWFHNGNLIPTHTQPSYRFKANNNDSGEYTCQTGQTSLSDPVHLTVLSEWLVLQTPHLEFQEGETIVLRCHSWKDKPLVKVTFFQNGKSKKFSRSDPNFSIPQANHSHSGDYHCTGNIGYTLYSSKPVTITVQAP
Description: as §1, §2

[1] = molecular target: T5, human CTLA-4 on engineered 293F cells (W316-293F.hPro1.FL) (human, UniProt P16410 36-223); assay: FACS on human CTLA-4 engineered cells, against benchmark BMK1
T5 construct: whole, on cells; also called human CTLA-4 engineered cells; CTLA-4+ cells
Description: (§3) 3.16-fold titrated Abs with 1% BSA DPBS from 200 nM to 0.002 nM were added to the cells. Plates were incubated at 4° C. for 1 hour. After wash, […] 1:150 diluted PE-labeled goat anti-human antibody (Jackson 109-115-098) was added to each well and the plates were incubated at 4° C. for 1 hour. The binding of the antibodies onto the cells was tested by flow cytometry and the mean fluorescence intensity (MFI) was analyzed by FlowJo.

[2] = molecular target: CTLA-4 (competition assays of Example 15) (UniProt P16410 36-161, limits assumed); assay: FACS competition: antibody titrated against CD80 binding to CTLA-4
[3] = molecular target: T6, human PD-1 ECD mouse Fc fusion (W305-hPro1.ECD.mFc) (human, UniProt Q15116 25-170); assay: dual-binding ELISA: human PD-1 ECD coated, antibody titrated, bound antibody detected with biotinylated human CTLA-4 ECD and streptavidin-HRP
T6 construct: extracellular domain; In-house protein; also called hPD-1-ECD; human PD-1 coated on the plate
Description: In order to test whether the bispecific antibodies could bind to both hPD-1 and hCTLA-4, an ELISA assay was developed as below. A 96-well ELISA plate (Nunc MaxiSorp, ThermoFisher) was coated overnight at 4° C. with 0.5 μg/ml antigen-1 (hPD-1-ECD, W305-hPro1.ECD.mFc) in carbonate-bicarbonate buffer. After a 1 hour blocking step with 2% (w/v) bovine serum albumin (Pierce) dissolved in PBS, serial dilutions of the different PD-1×CTLA-4 bispecific antibodies in PBS containing 2% BSA PBS were incubated on the plates for 1 hour at room temperature. Following the incubation, plates were washed three times with 300 μL per well of PBS containing 0.5% (v/v) Tween 20. […] After washing the plates three times, Streptavidin-HRP (Lifetechnologies, #SNN1004) (1:20000 diluted) was added and incubated on the plates for 1 hour at room temperature. After washing six times with […] per well of PBS containing 0.5% (v/v) Tween 20, 100 μL tetramethylbenzidine (TMB) substrate was added for the detection per well. The reaction was stopped after approximately 5 minutes through the addition of […] per well of 2 M HCl. The absorbance of the wells was measured at 450 nm with a multiwall plate reader (SpectraMax® M5e).

[4] = molecular target: T5, human CTLA-4 on engineered 293F cells …; assay: FACS on human CTLA-4 engineered cells
Description: as §3

[5] = molecular target: T7, human PD-1 on engineered CHO-S cells (W305-CHO-S.hPro1.C6) (human, UniProt Q15116 25-288); assay: FACS on human PD-1 engineered cells
T7 construct: whole, on cells; also called human PD-1 engineered cells; PD-1+ cells
Description: as §3, with “Engineered human PD-1 expressing cells W305-CHO-S.hPro1.C6 were seeded at 1×10⁵ cells/well in U-bottom 96-well plates (COSTAR 3799). Antibodies with 3.16-fold” for “3.16-fold”, “titration in” for “titrated Abs with”, “The plates” for “Plates”, “1:125” for “1:150”

[6] = molecular target: T7, human PD-1 on engineered CHO-S cells …; assay: FACS competition: antibody titrated against human PD-L1 binding to PD-1; falling curve, half-maximal value labelled EC50 on the sheet
Description: In order to test whether the bispecific antibodies could block hPD-L1 binding to hPD-1 protein, a competitive FACS was conducted. […] Plates were incubated at 4° C. for 1 hour. After wash, the binding of W315-hPro1.ECD.mFc to cell expressive human PD-1 was detected by FITC-labeled goat anti-mouse antibody (abcam 98716 1:125). The competition binding of antibodies to the cells was tested by flow cytometry and the mean fluorescence intensity (MFI) was analyzed by FlowJo.

[7] = molecular target: T7, human PD-1 on engineered CHO-S cells …; assay: FACS binding to human PD-1 engineered cells
Description: as §3, with “Engineered human PD-1 expressing cells W305-CHO-S.hPro1.C6 were seeded at 1×10⁵ cells/well in U-bottom 96-well plates (COSTAR 3799). Antibodies with 3.16-fold” for “3.16-fold”, “titration in” for “titrated Abs with”, “The plates” for “Plates”, “1:125” for “1:150”

[8] = molecular target: T5, human CTLA-4 on engineered 293F cells …; assay: FACS binding to human CTLA-4 engineered cells
Description: as §3

[9] = molecular target: T5, human CTLA-4 on engineered 293F cells …; assay: ELISA binding to human CTLA-4 (legend says 'engineered cells'; the form of the antigen in the ELISA is not described)
[10] = molecular target: T7, human PD-1 on engineered CHO-S cells …; assay: ELISA binding to human PD-1 (legend says 'engineered cells'; the form of the antigen in the ELISA is not described)

T7 sequence (Q15116 25-288, change not shown): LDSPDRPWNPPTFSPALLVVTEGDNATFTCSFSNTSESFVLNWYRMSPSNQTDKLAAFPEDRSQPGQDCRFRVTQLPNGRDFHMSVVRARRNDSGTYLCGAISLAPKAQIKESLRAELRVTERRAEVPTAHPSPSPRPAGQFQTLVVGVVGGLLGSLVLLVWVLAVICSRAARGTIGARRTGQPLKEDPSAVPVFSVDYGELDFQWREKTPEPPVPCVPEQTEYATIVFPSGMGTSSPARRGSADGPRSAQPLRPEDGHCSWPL
T5 sequence (P16410 36-223, stated change not applied): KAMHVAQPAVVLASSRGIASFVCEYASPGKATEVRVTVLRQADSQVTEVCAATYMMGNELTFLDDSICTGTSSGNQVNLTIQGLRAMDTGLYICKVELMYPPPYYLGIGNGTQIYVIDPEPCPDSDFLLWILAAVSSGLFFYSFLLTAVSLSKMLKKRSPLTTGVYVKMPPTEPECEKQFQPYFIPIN
T1 sequence (P12314 16-288 limits assumed): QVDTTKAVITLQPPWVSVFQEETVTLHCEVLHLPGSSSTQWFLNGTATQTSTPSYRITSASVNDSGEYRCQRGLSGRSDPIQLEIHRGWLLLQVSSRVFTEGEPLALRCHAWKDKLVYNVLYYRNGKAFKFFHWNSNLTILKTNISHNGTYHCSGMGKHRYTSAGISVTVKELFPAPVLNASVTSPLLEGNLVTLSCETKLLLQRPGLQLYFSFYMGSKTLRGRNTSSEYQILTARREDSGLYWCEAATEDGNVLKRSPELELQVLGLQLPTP
Chain of CTLA-4 (competition assays of Example 15) (P16410 36-161 limits assumed): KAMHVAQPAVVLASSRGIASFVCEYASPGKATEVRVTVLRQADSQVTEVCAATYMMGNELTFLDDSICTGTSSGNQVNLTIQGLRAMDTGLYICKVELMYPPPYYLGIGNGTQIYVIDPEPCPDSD
Chain of FcγRIIIa (V176) (P08637 17-208 F176V limits assumed): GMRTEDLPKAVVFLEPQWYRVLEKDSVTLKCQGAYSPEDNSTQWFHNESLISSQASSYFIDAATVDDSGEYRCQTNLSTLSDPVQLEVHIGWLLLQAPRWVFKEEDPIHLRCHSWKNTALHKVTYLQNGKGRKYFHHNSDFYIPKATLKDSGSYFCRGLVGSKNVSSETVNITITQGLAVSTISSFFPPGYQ
Chain of FcγRIIIa (F176) (P08637 17-208 limits assumed): as the sequence (P08637 17-208 F176V limits assumed) above, with V160F counted along it
Chain of FcγRIIIb (O75015 17-200 limits assumed): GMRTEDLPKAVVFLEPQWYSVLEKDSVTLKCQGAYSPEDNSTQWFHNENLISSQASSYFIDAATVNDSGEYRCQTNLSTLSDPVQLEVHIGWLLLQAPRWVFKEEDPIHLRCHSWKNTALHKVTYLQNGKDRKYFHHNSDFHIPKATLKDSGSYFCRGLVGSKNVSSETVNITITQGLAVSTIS
T6 sequence (Q15116 25-170): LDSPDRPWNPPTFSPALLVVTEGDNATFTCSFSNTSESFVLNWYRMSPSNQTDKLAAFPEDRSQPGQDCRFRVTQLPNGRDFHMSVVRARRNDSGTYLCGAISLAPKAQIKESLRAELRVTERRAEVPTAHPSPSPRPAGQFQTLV

Kd (FcγRI): 1.3 nM
Kd (FcγRIIIa (F176)): 2080 nM
Kd (FcγRIIIa (V176)): 644 nM
Kd (FcγRIIIb): 5160 nM
Kd (FcγRIIa (H167)): 3580 nM
Kd (FcγRIIa (R167)): 4830 nM
Kd (FcγRIIb): 8070 nM
B1: T3U4.E17-2.(2).uIgG1 (E17-Design_2-QQQQ in wild type IgG1 with knobs-into-holes) (bispecific antibody)
heavy 1: not shown
light 1: DIVMTQSPDSLAVSLGERATINCKSSQSLLNSRTRKNYLAWYQQKPGQPPKLLIYWASTRQSGVPDRFSGSGSGTDFTLTISSLQAEDVAVYYCTQSHTLRTFGGGTKVEIKPDIQNPDPAVYQLRDSKSSDKSVCLFTDFDSQTQVSQSKDSDVYITDKCVLDMRSMDFKSNSAVAWSQKSDFACANAFQNSIIPEDTFFPSPESS
heavy 2: QMQLVQSGPEVKKPGTSVKVSCKASGYAFTSYNMYWVRQARGQRLEWIGYIDPYNGDTTYNQKFKGRVTITRDMSTSTAYMELSSLRSEDTAVYYCLTTAYAMDYWGQGTLVTVSSASTKGPSVFPLAPSSKSTSGGTAALGCLVKDYFPEPVTVSWNSGALTSGVHTFPAVLQSSGLYSLSSVVTVPSSSLGTQTYICNVNHKPSNTKVDKRVEPKSCDKTHTCPPCPAPELLGGPSVFLFPPKPKDTLMISRTPEVTCVVVDVSHEDPEVKFNWYVDGVEVHNAKTKPREEQYNSTYRVVSVLTVLHQDWLNGKEYKCKVSNKALPAPIEKTISKAKGQPREPQVCTLPPSREEMTKNQVSLSCAVKGFYPSDIAVEWESNGQPENNYKTTPPVLDSDGSFFLVSKLTVDKSRWQQGNVFSCSVMHEALHNHYTQKSLSLSPGK
light 2: DIQLTQSPSFLSASVGDRVTITCSASSTVNYMHWYQQKPGKAPKLLIYSTSNLASGVPSRFSGSGSGTEFTLTISSLQPEDFATYYCHQWSSYPYTFGQGTKLEIKRTVAAPSVFIFPPSDEQLKSGTASVVCLLNNFYPREAKVQWKVDNALQSGNSQESVTEQDSKDSTYSLSSTLTLSKADYEKHKVYACEVTHQGLSSPVTKSFNRGEC
notes: Order T3-HC / T3-LC / U4-HC / U4-LC; copies: 1 + 1 + 1 + 1

fold improvement of EC50 against the benchmark antibody [1]: 1.6 fold
IC50 [2]: 0.758 nM
EC50 [3]: 0.071 nM
EC50 [4]: 7.55 nM
EC50 [5]: 1.32 nM
IC50 [6]: 1.92 nM
B2: U6T5.G25.IgG4, bispecific anti-PD-1 x CTLA-4 (as listed in Example 15) (bispecific antibody)
heavy: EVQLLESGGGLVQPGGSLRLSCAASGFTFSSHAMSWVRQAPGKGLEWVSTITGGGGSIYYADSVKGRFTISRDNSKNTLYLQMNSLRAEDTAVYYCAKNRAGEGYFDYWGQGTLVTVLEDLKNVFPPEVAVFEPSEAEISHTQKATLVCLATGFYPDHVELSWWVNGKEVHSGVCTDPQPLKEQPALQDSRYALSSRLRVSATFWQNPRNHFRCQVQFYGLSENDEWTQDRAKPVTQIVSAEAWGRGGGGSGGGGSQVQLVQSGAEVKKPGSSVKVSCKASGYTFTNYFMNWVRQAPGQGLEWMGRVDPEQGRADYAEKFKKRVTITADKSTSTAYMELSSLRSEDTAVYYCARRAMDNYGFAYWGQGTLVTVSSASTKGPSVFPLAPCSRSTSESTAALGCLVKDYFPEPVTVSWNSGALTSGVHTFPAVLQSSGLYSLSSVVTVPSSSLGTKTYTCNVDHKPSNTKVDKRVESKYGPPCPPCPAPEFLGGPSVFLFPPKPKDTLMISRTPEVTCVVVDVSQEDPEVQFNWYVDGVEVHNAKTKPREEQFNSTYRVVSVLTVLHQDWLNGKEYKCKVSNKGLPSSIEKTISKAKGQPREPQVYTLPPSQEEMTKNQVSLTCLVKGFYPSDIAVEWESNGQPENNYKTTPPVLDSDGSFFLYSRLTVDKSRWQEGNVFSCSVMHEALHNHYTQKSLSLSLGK
light 1: SYELTQPLSVSVALGQTARITCGGDNIGNKDVHWYQQKPGQAPVLVIYRDSNRPSGIPEGFSGSNSGNTATLTISRAQAGDEADYYCQVWDSIWVFGGGTKLTVLPDIQNPDPAVYQLRDSKSSDKSVCLFTDFDSQTQVSQSKDSDVYITDKCVLDMRSMDFKSNSAVAWSQKSDFACANAFQNSIIPEDTFFPSPESS
light 2: EIVLTQSPDFQSVTPKEKVTITCSANSALSYMYWYQQKPDQSPKLWVHGTSNLASGVPSRFSGSGSGTDFTLTINSLEAEDAATYYCHHWSNTQWTFGGGTKVEIKRTVAAPSVFIFPPSDEQLKSGTASVVCLLNNFYPREAKVQWKVDNALQSGNSQESVTEQDSKDSTYSLSSTLTLSKADYEKHKVYACEVTHQGLSSPVTKSFNRGEC
notes: kept apart

EC50 [7]: 1.84 nM
EC50 [8]: 59.8 nM
EC50 [9]: 0.177 nM
EC50 [10]: 0.102 nM
B3: U6T4.G26.IgG4, bispecific anti-PD-1 x CTLA-4 (bispecific antibody)
chain: EVQLLESGGGLVQPGGSLRLSCAASGFTFSSHAMSWVRQAPGKGLEWVSTITGGGGSIYYADSVKGRFTISRDNSKNTLYLQMNSLRAEDTAVYYCAKNRAGEGYFDYWGQGTLVTVLEDLKNVFPPEVAVFEPSEAEISHTQKATLVCLATGFYPDHVELSWWVNGKEVHSGVCTDPQPLKEQPALQDSRYALSSRLRVSATFWQNPRNHFRCQVQFYGLSENDEWTQDRAKPVTQIVSAEAWGRGGGGSGGGGSDIVMTQTPLSLSVTPGQPASISCRSSQSLLNSDGNTYLYWYLQKPGQSPQLLIYLVSKLGSGVPNRFSGSGSGTDFTLKISRVEAEDVGVYYCVQGTHDPWTFGGGTKVEIKRTVAAPSVFIFPPSDEQLKSGTASVVCLLNNFYPREAKVQWKVDNALQSGNSQESVTEQDSKDSTYSLSSTLTLSKADYEKHKVYACEVTHQGLSSPVTKSFNRGEC
light: SYELTQPLSVSVALGQTARITCGGDNIGNKDVHWYQQKPGQAPVLVIYRDSNRPSGIPEGFSGSNSGNTATLTISRAQAGDEADYYCQVWDSIWVFGGGTKLTVLPDIQNPDPAVYQLRDSKSSDKSVCLFTDFDSQTQVSQSKDSDVYITDKCVLDMRSMDFKSNSAVAWSQKSDFACANAFQNSIIPEDTFFPSPESS
heavy: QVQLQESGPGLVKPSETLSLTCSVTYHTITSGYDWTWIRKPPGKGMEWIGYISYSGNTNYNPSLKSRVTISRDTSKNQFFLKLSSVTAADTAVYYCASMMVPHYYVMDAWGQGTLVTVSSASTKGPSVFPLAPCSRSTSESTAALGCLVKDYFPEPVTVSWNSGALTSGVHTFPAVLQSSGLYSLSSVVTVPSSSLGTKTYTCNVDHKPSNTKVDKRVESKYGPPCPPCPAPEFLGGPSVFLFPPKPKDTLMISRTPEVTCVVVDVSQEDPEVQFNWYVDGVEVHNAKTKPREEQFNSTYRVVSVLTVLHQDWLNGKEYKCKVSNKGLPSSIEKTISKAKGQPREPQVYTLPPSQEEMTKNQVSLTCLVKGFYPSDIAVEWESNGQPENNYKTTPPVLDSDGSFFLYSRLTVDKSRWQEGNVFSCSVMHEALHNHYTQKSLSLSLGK
notes: Light-heavy crossed chimeric Fab; first chain is U6-HC fused to T4-LC; also called U6T4 antibody pair in G26 format
